To fix the notation:
B1: KNL-1^1–505–6xHis Δ9 (domain or fragment)
chain: NSILKVRQAVETIEETVMNSGPSSTTTNRRVSFHNVKHVKQYDRDHGKILDATPVKEKITDTIGSDGILTPRGGNMDISESPACTSSFQVFGGGNLDKTMDMSLETTINENNETARLFETTRDPTLLYEKIVETTTKVTERIVSMPLDDTLAMFNTTNQEDKDMSVDRSVLFTIPKVPKHNATMNRTIPMDLDESKAAGGQCDETMNVFNFTNLEAAEMDTSKLDENNTMNAIRIPINSNVMPVDMDITEHHTLIEEKKNDTFGPSQLMDISAPQVQVNDTLAIFNSPRDICNKGLGVPQNLINIASNVVPVDMDITDQAVLNAEKKNDQFETSQLMDISIPKVLVNDTMAMFNSPKHVSKSSMDLEKTIEAADKSTKYPSIADEVEDLDMDMDITEQQPCEAGNQQNDGLQLQKEDLMDISVIRDSPAVNDTMAVFQSPARVKIGANNSIIDSQKSIVFGDEMSIDETQNDGTLTLPKSNVEVTTTNDVYTSLER

The series “SEC” deals with the molecule itself. Nature of the series: SEC. (SEC sorts molecules by how far they enter the pores of the column.)
The series “KNL-1^1–505–6xHis Δ9” addresses B1. Put plainly: pull-down.
Series [1] addresses T1, KNL-1^1–505–6xHis, wild type (C. elegans, UniProt P34278 1-505).
T1 sequence: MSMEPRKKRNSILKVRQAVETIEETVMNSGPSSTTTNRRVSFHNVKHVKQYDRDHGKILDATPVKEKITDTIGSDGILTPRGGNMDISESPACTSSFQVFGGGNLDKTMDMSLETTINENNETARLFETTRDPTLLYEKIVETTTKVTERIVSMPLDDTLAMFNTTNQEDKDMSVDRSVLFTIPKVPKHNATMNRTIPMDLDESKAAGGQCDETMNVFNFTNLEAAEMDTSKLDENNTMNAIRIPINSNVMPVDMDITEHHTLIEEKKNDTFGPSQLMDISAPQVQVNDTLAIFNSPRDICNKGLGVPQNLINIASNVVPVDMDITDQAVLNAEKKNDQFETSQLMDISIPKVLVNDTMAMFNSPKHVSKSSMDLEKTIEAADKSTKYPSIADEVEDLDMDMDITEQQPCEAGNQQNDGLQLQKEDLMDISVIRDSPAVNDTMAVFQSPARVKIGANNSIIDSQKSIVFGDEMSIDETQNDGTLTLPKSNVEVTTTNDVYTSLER
Put plainly: pull-down.

As to B1, the binding result in the series “SEC” is on record as “binds”.

B2: GST–GSP-2 (enzyme)
chain: MDVEKLNLDNIISRLLEVRGSKPGKNVQLTESEIKGLCQKSREIFLSQPILLELEAPLKICGDVHGQYYDLLRLFEYGGFPPESNYLFLGDYVDRGKQSLETICLLLAYKIKYPENFFLLRGNHECASINRIYGFYDECKRRYNIKLWKTFTDCFNCLPVAAIIDEKIFCCHGGLSPDLQSMEQIRRIMRPTDVPDQGLLCDLLWSDPDKDVTGWGENDRGVSFTFGPEVVAKFLHKHDLDLICRAHQVVEDGYEFFAKRQLVTLFSAPNYCGEFDNAGSMMTVDETLMCSFQILKPADKKKYPYGAGGVGSNRPVTPPRNAPAAQPKKGAKK
As to B2, the binding result (in the series with KNL-1^1–505–6xHis Δ9; in series [1]) was “binds” each time.

These data come from paper PMC3284002 (The Journal of Cell Biology, 2012).
